According to the DeepSol protein solubility set:

Assay: soluble on expression in E. coli; label from the status in PepcDB or PDB records

Sequence: MGSDKIHHHHHHMKILLLNTSDARGGAAVAAMRLMETLQEAGAEVRMLVLNRNTTNPDIMALHSGRCGKTADKYRFLAERLHIYMCNGRDRSRLFHVSTALIGYDVSCHPWVRWADVIHLHWINQGFLSLRGLERLTRCGKSVVWTMHDMWPVTAICHHARECLRYRTECGACPQISSQKEKDLARLVWNRKSRVISLLRPTLIGCSHWLADLARQSALTDGLRIESIPNPIDTNLFAPGSRSDARRIMDLPTDRILLLFGAVQADDPRKGIYELSQAMKRLRERQPDLSKRIALVVFGSLRDEVRSLFPNYKLISIGYIREPSRMAELYRAADLFVIPSLEENLPNTIMEALSVGTPCVAFRVGGIPEMIVSGSTGYLAAFRDPSDLAEGITKTIALQETSPEAVASACRSFVLRHYSREVVSSRMLQLYRELL
- soluble on expression in E. coli: not soluble

Sequence: MGHHHHHHSHMPSLSTLRMRRCPSSLWIRFGYDPRKNPDAKIYQVLDFRIRCGMKHGYAPSDLPVKAKRSTYNYSLPITVKKTSSQLVTMHDLKQGLGPSGTSGARKPASSKYKLKVSLQTLRDSVYIFREGALPPYRQMFYQLCDLNVEELQKIIHRNDGAENSCTERDGWCLPKTSDELRDTMSLMIRQTIRSKRPALFSSSAKADGGKEQLTYESGEDEEDEEEEEEEEEDFKPSDGSENEMETEILDYV
- soluble on expression in E. coli: not soluble

Sequence: GSHMASMTGGQQMGRGSEFRSMTAIEDILQITTDPSDTRGYSLLKSEEVPQGSTLGVDFIDTLLLYQLTENEKLDKPFEYLNDCFRRNQQQKRITKNKPNAESLHSTFQEIDRLVIGYGVVALQIENFCMNGAFINYITGIVSNVNSYTDFLSQIIQRAILEGTALDLLNAVFPTLLEYCNKHVSHFDLNESVIYNNVLTIFELFVTFKPIAEIFTKIDGFFADYSCKPQDFERKTILGPILSLSPIEAAVAIRNYGDNLLRSKQQTAMIHESLQAEHKVVIDRLFFIVDKLVRGSLNSRTDMISYFAHIANKNHLRRADHPPFKELSSNGFMSNITLLLVRFSQPFLDISYKKIDKIDANYFNNPSLFIDLSGETRLNSDFKEADAFYDKNRKTADSKPNFISDCFFLTLTYLHYGLGGTLSFEEKMGSEIKALKEEIEKVKKIAANHDVFARFITAQLSKMEKALKTTESLRFALQGFFAHRSLQLEVFDFICGASTFLIRVVDPEHEFPFKQIKLPLIPDQIGVENVDNADFLRAHAPVPFKYYPEFVVEGPVNYSLYISKYQTSPIFRNPRLGSFVEFTTMVLRCPELVSNPHLKGKLVQLLSVGAMPLTDNSPGFMMDIFEHDELVNKNLLYALLDFYVIVEKTGSSSQFYDKFNSRYSISIILEELYYKIPSYKNQLIWQSQNNADFFVRFVARMLNDLTFLLDEGLSNLAEVHNIQNELDNRARGAPPTREEEDKELQTRLASASRQAKSSCGLADKSMKLFEIYSKDIPAAFVTPEIVYRLASMLNYNLESLVGPKCGELKVKDPQSYSFNPKDLLKALTTVYINLSEQSEFISAVAKDERSFNRNLFVRAVDILGRKTGLASPEFIEKLLNFANKAEEQRKADEEEDLEYGDVPDEFLDPLMYTIMKDPVILPASKMNIDRSTIKAHLLSDSTDPFNRMPLKLEDVTPNEELRQKILCFKKQKKEEAKHKASE
- soluble on expression in E. coli: soluble

Sequence: MTEPIKEIAAKRSVEAVYTGGTVRWSANGQKLFSTCTNVVKVIDLADNTASYTIGDPEDELRITCTAVDKNRNRLLVAYNNQIIREYSIPLDPSTTKPELARTWKTIHTAPILVMEFNEEGHLLATGSADHIVKVWNLTEQQCTHTLKGPSVVSAILFGKHEKLVVGYIEGQLNLYNIMRGAPKKLVNTWKSHNSHITALLQVPDSRVVVALSRDQTMSIHETETQETLRVLPLYESIEGGAIGHNGNLFTVGEEGVVKEFVIETAKLVRKKRIASSNLDHLAYDVVSNRFLAISAEQNLIILDFENLKIARQIVGFHDEIYSCCLLGKDESHMAVASNTSEIRLYNTKTLDCQLIRGHTESVLSVVSPTWDTSLLASCSKDNSIIFWRLVTSPENDSCSTLVPVAAATGHANTVTALAISNTGRAPFLASVSTDCTIKLWGLGVSTKLKEVKIDAEKDFVEQLPKLTCSSTMVAHGKDVNCVDISESDALIATGGMDKLVKLWQVDTHKMQLGIAGTLSGHRRGVGDVKFAKNSHKLASCSGDMTIKIWNISEKSCLQTISGHSCAVFRVIFARNDSQLISADSAGIIKIWTIKTADCECSIDAHTDKIWSLSKNHNESEFVTAGTDGRIVVWKDVTEEKQKAEDNKRREAIEQDQTLTNLLSQKRYSEALVFALTLAKPFCAFKVINALMAEETPEELGSAIRRLDTRQIEILLQFTVKWNTNSRTSSVAQRVLYEIVHIVDPEELVSMPGAYGYIESFLPYTQRHMDRLDRAKQDVSLFDFVWRQMRSSV
- soluble on expression in E. coli: not soluble

Sequence: MRSLLIALAATVALSLPARADEVTVAVTAIVEHPALDAARDGVKDALAAAGYKEGENLKFIYESAQGNPATAAQIARQFAGEAPSVIVPISTPSAQAVVSSTRDIPVVFTAVSDPLGAQLVKDMEKPGGNVTGLSDLSPVAEHVALIKEILPNVKTIGYLYNSGEANSVSLLAVLKEEAEKAGLSVIESAATKSAEVQGAARALVGRADAIYIPTDNTIISALEGAVAVAEESKLPLFTADTDSVSRGAVAALGFNYYDVGKQTGEVVVRVLKGENPGDIAVKVAAGTDLVINKGAATRMGVTLPESVVGRATRTIE
- soluble on expression in E. coli: not soluble

Sequence: MRVENSNGQSQPAATSKTVKDNAEIYYDNDDSDRFYFHVWGGEDIHVGLYKEPVDQDEIREASLRTDEWLASELAMTGVLQRQAKGLDLGAGYGGAARFLVRKFGVSIDCLNIAPVQNKRNEEYNSQAGLADNITVKYGSFLEIPCEDNSYDFIWSQDAFLHSPDKLKVFQECARVLKPGGVMAITDPMKEDGIDKSSIQPILDRIKLHDMGSLGLYRSLAKECGLVTLRTFSRPDSLVHHYSKVKAELIKRSSEIASFCSPEFQANMKRGLEHWIEGGRAGKLTWGGMLFRKSDKI
- soluble on expression in E. coli: soluble

Sequence: MEKTITIYTDGAASGNPGKGGWGALLMYGSSRKEISGYDPATTNNRMELMAAIKGLEALKEPARVQLYSDSAYLVNAMNEGWLKRWVKNGWKTAAKKPVENIDLWQEILKLTTLHRVTFHKVKGHSDNPYNSRADELARLAIKENS
- soluble on expression in E. coli: soluble

Sequence: MHKIRSHSKYIIPRLNKIVEEGDADAVGFEFPVESFKFLE
- soluble on expression in E. coli: not soluble

Sequence: MKKEEAKDIPIGGEIAVRQTGVPYGWLYRRTEPGYLLANGIALLECERDSAGRYKGGAGLDGMYLQTGRLYVPVLAGDGNVRAFQEVIPENYLAAAEMSVEGNYNQIDGIINNEPPKPSVLDALNQCREDAAKGRDAPENPPRGQEVER
- soluble on expression in E. coli: not soluble

Sequence: GMGVNMRAETESRIFSVDEYVRPSNGEPIRSVVLETNDSVVVVWHAHPGQEIASHVHPHGQDTWTVISGEAEYHQGNGIVTHLKAGDIAIAKPGQVHGAMNSGPEPFIFVSVVAPGNAGFALAEK
- soluble on expression in E. coli: soluble

Sequence: MQSVTPTSQYLKALNEGSHQPDDVQKEAVSRLEIIYQELINSRPPAPRTSGLMARVGKLWGKREDTKHTPVRGLYMWGGVGRGKTWLMDLFYQSLPGERKQRLHFHRFMLRVHEELTALQGQTDPLEIIADRFKAETDVLCFDEFFVSDITDAMLLGGLMKALFTRGITLVATSNIPPDELYRNGLQRARFLPAIDAIKQHCDVMNVDAGVDYRLRTLTQAHLWLSPLNDETRAQMDKLWLALAGVKRENSPTLEINHRPLATMGVENQTLAVSFTTLCVDARSQHDYIALSRLFHTVMLFDVPVMTRLMESEARRFIALVDEFYERHVKLVVSAEVPLYEIYQGERLKFEFQRCLSRLQEMQSEEYLKREHLAGLEHHHHHH
- soluble on expression in E. coli: soluble

Sequence: MGSDKIHHHHHHMSNTDKYYRDRSHITGKLDLQKLPKAIREKQYGIDVREAMAQTAEAIAGVQSTAQKFNQDTKNQVNQLDEKYTREIRAIVLGDTTSVATPPIQEPNSEASNPLSNLYETARGQVLYDFVKQSSLTKVSKIGVIGDSVAATAGGFPDILAHQYNIYVENLSVGGAKMSDYNHDAIVNQASRLQQCDVVIIQGTDDDWVHDISLGYAGDTNIKTYLGGLRETIKRVKNNNPKAKLIVVNCTRQCVDVHGKYRTEQSKNTFGLTLIDYMEAQKKYLNQQDVPYVDLMKPTSIFEPDNPAFKKTMMHDGLHPTPEAHQYIVQEIAKDYSYYYDK
- soluble on expression in E. coli: not soluble

Sequence: MSLKLKEEERMTEMILEYKNQLCKQNKLIQEKKENVLKMIAEVKGKEQESEELTAKIQELKEEYARKRETISTANKANEERLKGLQKSADLYRDYLGLEIRKIHGNKLQFIFTSIDPKNPESPYMFSMSINEAKEYEVYDSSPHLECLAEFQEKVRKTNNFSAFLANIRKAFIAKVHN
- soluble on expression in E. coli: not soluble

Sequence: PWLENVQVQLSDLFSELKYNSVSGSGKIGIMASGVSALYVKEAVKGFEELFTLFRVGTVYPFPEKAALSFLKGIEKLIVVEELDPYLEEQALQLIGRAHLPADVYGKKNGFFPVSGEYNVDIIIDCINKVLAELGETSRLSHSAPAIPRSGLPPLPVRAPTLCAGCMHRTVFYAFKQASKQLKKDFQVETIFSGDIGCYTLGNAHPLNMVDTCLCMGAGMSIAGGLSRANPGVKQVAFIGDSTFFHSGIPAVINAVYNGSDVTLAVLDNRTTAMTGHQTHPGIGVTVLGSPSKAVDISDVIRSCGVELVRSVDIDSLENSLEGCIEAAKEAVEFKGPSAVVFKGKCVGITKPVIRFEIDTESCTGCGLCVKQLGCPALFLPAGEEKPVIQDSCSGCGLCAQVCPSGAIIETGVK
- soluble on expression in E. coli: not soluble

Sequence: MGSDKIHHHHHHMTGTESGASGGQPANSDDWDAVTARREAEALIIDVDGFEGPLDLLLTLSRTQKVDLRRISILALTEQYLVFIEKARQLRIELAADYLVMAAWLAFLKSKLLLPPEPGEEGPSGEDLAAHLAFQLERLAAMRDCAARLMAQDRLGRDRFVRGQTQAMTTNRKVIYTAGLLDLMQAYARIRTKDEFRPFVMDREAVLTMEEALDRLRGMVGYMGDWADLMSYLPDGWTTDPAKRRSAAAANFAAALELAKAGRVEIRQADTFSPIQLRRKEP
- soluble on expression in E. coli: not soluble

Sequence: MANQVNGNAVQLKEEEEPMDTSSVTHTEHYKTLIEAGLPQKVAERLDEIFQTGLVAYVDLDERAIDALREFNEEGALSVLQQFKESDLSHVQNKSAFLCGVMKTYRQREKQGSKVQESTKGPDEAKIKALLERTGYTLDVTTGQRKYGGPPPDSVYSGVQPGIGTEVFVGKIPRDLYEDELVPLFEKAGPIWDLRLMMDPLSGQNRGYAFITFCGKEAAQEAVKLCDSYEIRPGKHLGVCISVANNRLFVGSIPKNKTKENILEEFSKVTGLTEGLVDVILYHQPDDKKKNRGFCFLEYEDHKSAAQARRRLMSGKVKVWGNVVTVEWADPVEEPDPEVMAKVKVLFVRNLATTVTEEILEKSFSEFGKLERVKKLKDYAFVHFEDRGAAVKAMDEMNGKEIEGEEIEIVLAKPPDKKRKERQAARQASRSTAYEDYYYHPPPRMPPPIRGRGRGGGRGGYGYPPDYYGYEDYYDDYYGYDYHDYRGGYEDPYYGYDDGYAVRGRGGGRGGRGAPPPPRGRGAPPPRGRAGYSQRGAPLGPPRGSRGGRGGPAQQQRGRGSRGSRGNRGGNVGGKRKADGYNQPDSKRRQTNNQQNWGSQPIAQQPLQQGGDYSGNYGYNNDNQEFYQDTYGQQWK
- soluble on expression in E. coli: soluble

Sequence: MGSDKIHHHHHHCEDIFNDLAVNPNQSDVNSFYTTLENCNKGILGIYGYISTPRNLGACGFGLMLTRSDEGCSVADYGVPGAYNEEFTPSYYSLVQPFQLMYTAASQANQMIESLTEIEFSNKELQDAYLGEAYFLRAFTHFFLFINYRNIPLIKELPKAPNEYKPQATPEEAWDFIIDDLIKAKDLLPDKNFWDAKNKGRVTKASAYALLGKSYLYRSGIEPKYGTSQTTYYNEAAAAFAEIINGNCGNYRLVDDYSWNFDVAHENNDESIFEVQFVGVLNTGFNPGFVDSGLFNDVRCKMCIMNRSRNSNSSAQVMHNWLYDKFVASKTVTGETDPRMFGSFVFNDNVSEIIRPKGMKVTFLEGKDWEAEMGSKEGTFGEQYELAMGYKMCSRKWLDWTLPPTDDAGGHFFNGRAQGVNWRMIRYSDVLLMYAEAVVMGGKATANITPLEAINKVRDRVGVPHVTEANMRTIEDERILELTYEGFRFFDLLRWGKVVERFRELENTDPLFKRFSRAQYMGFKENKNEWVPLPIDEVEGNPYITKNNPGW
- soluble on expression in E. coli: not soluble
